Patent publication US12539335B2, “Tricyclic polypeptide conjugated drug and use thereof” (CONJUSTAR (ZHUHAI) BIOLOGICS CO., LTD., priority 2021, dated 2026)
Where a name gives a salt, the structure may show the parent alone. Starred links: 1 amine or outer side, 2 acyl side, 3 side chain; linkers in the order of their positions; H or OH if unused. Positions of bridges follow the written chain, without caps; N, C: chain ends. Non-standard residues stand in square brackets, D forms with d. Residues, ends and D or L forms follow the SMILES beside them. Chains are numbered I, II in the order given. *: point of attachment. TATA = O=C(CC[*:1])N1CN(C(=O)CC[*:2])CN(C(=O)CC[*:3])C1; Dolaproine = CO[C@@H]([C@@H]1CCCN1)[C@@H](C)C(=O)O; Dil = CC[C@H](C)[C@H](NC)[C@@H](CC(=O)O)OC; 1Nal = N[C@@H](Cc1cccc2ccccc12)C(=O)O; X2 = O=C(CCCC(=O)[*:2])NCCC(=O)[*:1]; PABC = O=C(OCc1ccc(N[*:1])cc1)[*:2]; X1 = C[C@@H](N*)[C@@H](O)c1ccccc1; Hyp = O=C(O)[C@@H]1C[C@@H](O)CN1; hArg = N=C(N)NCCCC[C@H](N)C(=O)O; Cit = NC(=O)NCCC[C@H](N)C(=O)O; Pen = CC(C)(S)[C@H](N)C(=O)O; NMeV = CN[C@H](C(=O)O)C(C)C; Sar = CNCC(=O)O

Columns and labels:
[1] = Metabolic stability in hepatocytes, CD-1 mice; format: in vitro ADME; conditions: mouse, hepatocytes (cryopreserved, suspension), CD-1 mice hepatocytes, 0.5×10^6 cells/mL
Protocol: Test Example 7: Metabolic Stability of the Compounds of the Present Invention in Hepatocytes from Mice, Rats, Cynomolgus Macaques, and Humans
To investigate the metabolic stability of the compounds of the present invention in hepatocytes from mice, rats, Cynomolgus macaques, and humans.
Incubations were performed in 96-well plates using an external extraction method. Several 96-well sample precipitation plates, designated T0, T15, T30, T60, T90, TO-MC, T90-MC, and blank matrix, were prepared, respectively. The recovery culture medium and incubation culture medium were removed in advance and placed in a 37° C. water bath for preheating. […]
At the end of the incubation at the corresponding time point, the incubation plates were removed, from which 25 μL of a compound mixture with the cells and a control compound mixture with the cells were removed and added to sample plates containing 125 μL of stop buffer, respectively. […] All samples were mixed uniformly and then analyzed by the LC-MS/MS method.
The concentration of the compound to be tested and the concentration of the control in the sample were semi-quantitatively determined by the liquid chromatography-tandem mass spectrometry (LC-MS/MS) method without a standard curve and quality control sample. […]

[2] = Pharmacokinetic analysis in rat plasma; format: in vivo, SD rats; conditions: Sprague-Dawley (SD), rat, SD rats, single IV 3 mg/kg, plasma
Protocol: Test Example 5: Pharmacokinetic Analysis of the Compounds of the Present Invention in Rat Plasma
To test the pharmacokinetics of the compounds of the present invention in SD rats.
The pharmacokinetic characteristics of the compound after intravenous injection were tested in rats according to a standard protocol. The compound to be tested was formulated into a clear solution using 25 mM L-histidine (pH=7) in 10% sucrose as a vehicle. Two rats were given a single intravenous injection of 3 mg/kg of the compound to be tested. Whole blood was collected at time points of 0.083, 0.25, 0.5, 1, 2, 4, 8, and 24 hours after administration to get plasma. The concentration of the compound of the present invention and the concentration of its potential metabolite MMAE were analyzed by the LC-MS/MS method, and the pharmacokinetic parameters were calculated by Phoenix WinNonlin software.

[3] = Stability in plasma, Cynomolgus macaques; format: in vitro ADME; conditions: cynomolgus macaque, 37° C.
Protocol: Test Example 9: Stability Analysis of the Compounds of the Present Invention in Plasma from Different Species
To test the stability of the compounds of the present invention in plasma from SD rats, Cynomolgus macaques, and humans.
The corresponding incubation plates, including T0, T10, T30, T60, T120, and T240 incubation plates, were added with a 2 μL working solution of the compound to be tested (100 μM). Three parallel wells were prepared for each sample. Then, 98 μL of blank plasma from SD rats, Cynomolgus macaques, and humans was added to the corresponding incubation plates to which the working solution had been added. All samples were incubated in a 37° C. water bath. […] At the end of each incubation time point, the corresponding incubation plate was removed, added with stop buffer, precipitated, and centrifuged for 20 minutes. Then, 150 μL of the supernatant was analyzed by the LC-MS/MS method. The concentration of the compound to be tested in the sample was semi-quantitatively determined by the liquid chromatography-tandem mass spectrometry (LC-MS/MS) method.

CC[C@H](C)[C@@H]([C@@H](CC(=O)N1CCC[C@H]1[C@H](OC)[C@@H](C)C(=O)N[C@H](C)[C@@H](O)c1ccccc1)OC)N(C)C(=O)[C@@H](NC(=O)[C@H](C(C)C)N(C)C(=O)OCc1ccc(NC(=O)[C@H](CCCNC(N)=O)NC(=O)[C@@H](NC(=O)CCCC(=O)NCCC(=O)N(C)CC(=O)N(C)CC(=O)N(C)CC(=O)N(C)CC(=O)N(C)CC(=O)N(C)CC(=O)N(C)CC(=O)N(C)CC(=O)N(C)CC(=O)N(C)CC(=O)N[C@H]2CCCCNC(=O)C[C@@H](C(=O)N[C@H]3CSCCC(=O)N4CN5CN(C4)C(=O)CCSC(C)(C)[C@H](NC(=O)[C@@H](CC(=O)O)NC(=O)[C@H](Cc4cccc6ccccc46)NC(=O)[C@@H]4CCCN4C3=O)C(=O)N[C@@H](CCSC)C(=O)N[C@@H](CCCCNC(=N)N)C(=O)N[C@@H](CC(=O)O)C(=O)N[C@@H](Cc3c[nH]c4ccccc34)C(=O)N[C@@H](CO)C(=O)N[C@@H]([C@@H](C)O)C(=O)N3CCC[C@H]3C(=O)N3C[C@H](O)C[C@H]3C(=O)N[C@@H](Cc3c[nH]c4ccccc34)C(=O)N[C@H](C(N)=O)CSCCC5=O)NC(=O)CN(C)C2=O)C(C)C)cc1)C(C)C [Acetate salt of PDC_2] (I: [Sar][Sar][Sar][Sar][Sar][Sar][Sar][Sar][Sar][Sar]K[Sar]DCP[1Nal][dD][Pen]M[hArg]DWSTP[Hyp]WC-NH2 / II: V[Cit][PABC][NMeV]V[Dil][Dolaproine]-X1; lactam I:11-I:13; linker I:14-I:18-I:28 via TATA; linker I:N-II:N via X2)
half-life at 1 μM [1]: > 217 min | CLint scaled at 1 μM ([1]; read-out: CLint (liver)): < 75.9 mL/min/kg | AUC(0-t) [2]: 4.4 µM·h | C0 [2]: 6.9 µM | clearance [2]: 2.7 mL/min/kg | half-life [2]: 42 min | Vd ([2]; read-out: Vdss): 0.1 L/kg | half-life at 2 μM [3]: > 578 min
